Like-named read-outs stand apart in the source and are kept apart here.
Legend:
[1] = molecular target: T1, recombinant human ROR2-extracellular domain (ROR2-ECD) (human, UniProt Q01974 34-403); test: ELISA
T1 construct: also called recombinant ROR2-extracellular protein; recombinant ROR2 protein

[2] = molecular target: T2, human ROR2 expressed on cells (human, UniProt Q01974 34-943); test: flow cytometry on ROR2-expressing cells
T2 construct: Full-length human ROR2 entry; endogenous on cell lines and PDX cells, transfected in MCF7-ROR2; also called ROR2 surface antigen; human ROR2 on K562, BR1936 PDX, MCF7-ROR2 and other ROR2-expressing cell lines

[3] = molecular target: T1, recombinant human ROR2-extracellular …; test: kinetic exclusion assay (KinExA), soluble recombinant ROR2
Protocol: (§1) FIGS. 4A and 4B. Affinity measurement of binding of the 6E6 and 4G9 mAb to recombinant ROR2 protein. (FIG. 4A) Analysis was performed using a KinExA 3200 instrument. The proportion of anti-human ROR2 mAb bound to particles coated with ROR2 protein (y-axis) in the presence of increasing molar (M) concentration of soluble ROR2 competitor (x-axis) is shown for 6E6 (upper panel) and 4G9 (lower panel). (FIG. 4B) Illustration of the 95% confidence interval for the measured Kd of 6E6 (upper panel) and 4G9 (lower panel) for binding to human ROR2.
(§2) Applicants assessed binding specificity and relative affinities of each mAb using recombinant ROR2-extracellular protein in an ELISA assay, in which binding was measured using decreasing/limiting amounts of ROR2 protein and assessed in combination with decreasing concentrations of each of the four mAb (FIG. 3). Higher absorbance values for 6E6 and 4G9 at both lower ROR2 protein amounts and lower concentrations of mAb, indicate these mAb have higher affinities compared to 5C11 and 5G3. Equilibrium dissociation constants (Kd) were measured in a kinetic exclusion assay (KinExA) that measures the equilibrium binding affinity and kinetics between unmodified molecules in solution.

[4] = molecular target: T1, recombinant human ROR2-extracellular …; test: KinExA 3200 kinetic exclusion assay; free mAb captured on particles coated with ROR2 protein, soluble ROR2 as titrant
Protocol: as §1, §2

[5] = molecular target: T3, recombinant human ROR2 with histidine 349 replaced by the arginine of mouse ROR2 (human, UniProt Q01974 34-403); test: dot blot; recombinant protein on nylon membrane, probed with the mAb, HRP anti-mouse IgG
T3 construct: also called human ROR2 H349R

[6] = molecular target: T4, recombinant human ROR2 with aspartic acid 354 replaced by the glutamic acid of mouse ROR2 (human, UniProt Q01974 34-403); test: as above
T4 construct: also called human ROR2 D354E

h1-160 aa = molecular target: T5, h1-160 aa (human;mouse, UniProt Q01974;Q9Z138); test: as above
T5 construct: N-terminal part of the extracellular portion;C-terminal part of the extracellular portion; also called chimeric human/mouse recombinant ROR2 extracellular construct with the first 160 amino acids of human ROR2
Source text: (§3) FIG. 5. Identification of the binding regions of anti-human ROR2 mAb by assessment of binding to chimeric […] recombinant ROR2 protein. […] Each recombinant protein was transferred onto nylon membrane, probed with the 6E6, 4G9, 5C11, 5G3 or anti-his tag mAb, and detected with an anti-mouse IgG antibody conjugated with horse radish peroxidase, as shown in the right panel. The […] and 5C11 mAbs bind to ROR2 recombinant proteins that contain the human kringle domain.
(§4) Applicants developed a series recombinant human/mouse hybrid proteins that isolate specific domains of the human ROR2 protein. These recombinant proteins were used to identify the specific binding domains that each of the four mAb target (FIG. 5). The 6E6 and 5C11 mAb bind to the Kringle domain of human, but not mouse, ROR2. […] None of the four mAb bind mouse ROR2.

hCRD = molecular target: T6, hCRD (mouse;human, UniProt Q9Z138;Q01974); test: as above
T6 construct: N-terminal part of the extracellular portion;cysteine rich domain (CRD);C-terminal part of the extracellular portion; also called chimeric human/mouse recombinant ROR2 extracellular construct that contains the cysteine rich domain of human ROR2
Source text: as §3, §4

[7] = molecular target: T7, mouse ROR2 (recombinant extracellular portion) (mouse, UniProt Q9Z138 34-403); test: as above
Source text: as §3, §4

h1-111 aa = molecular target: T8, h1-111 aa (human;mouse, UniProt Q01974;Q9Z138); test: as above
T8 construct: N-terminal part of the extracellular portion;C-terminal part of the extracellular portion; A tag is not described, but the blot was also probed with an anti-his tag mAb
Source text: as §3, §4

[8] = molecular target: T1, recombinant human ROR2-extracellular …; test: kinetic exclusion assay (KinExA), soluble recombinant ROR2; remark: listed apart in the source
Protocol: as §1, §2

[9] = molecular target: T1, recombinant human ROR2-extracellular …; test: KinExA 3200 kinetic exclusion assay; free scFv captured on particles coated with recombinant ROR2 protein, soluble ROR2 as titrant
Protocol: FIGS. 12A and 12B. Affinity measurement and binding specificity of the 6E6 single chain variable fragment (scFv) for human ROR2. Analysis was performed using a KinExA 3200 instrument. (FIG. 12A) The proportion of the 6E6 anti-human ROR2 scFv bound to particles coated with recombinant ROR2 protein (y-axis) in the presence of increasing molar (M) concentration of soluble ROR2 competitor (x-axis) is shown. (FIG. 12B) Illustration of the 95% confidence interval for the measured Kd of 6E6 scFv for binding to recombinant human ROR2. (FIG. 12C) Binding of the 6E6 scFv to ROR2 was assessed by flow cytometric staining and analysis of K562 (ROR2 positive) and JEKO (ROR2 negative) cells. Cells were stained on ice for 20 minutes with ~1 ug/ml of 6E6 anti-human ROR2 scfv, washed, stained for an additional 20 minutes on ice with phycoerythrin (PE)-conjugated anti-human IgG1 antibody, washed and analyzed by flow cytometry. Shaded histograms depict the relative fluorescence intensity (x axis) of viable cells, as determined by light scatter characteristics, stained with 6E6 scfv compared to viable cells stained with the anti-human IgG1-PE antibody only (open histograms).

hKringle [10] = molecular target: T9, hKringle (mouse;human, UniProt Q9Z138;Q01974); test: dot blot; recombinant protein on nylon membrane, probed with the mAb, HRP anti-mouse IgG
T9 construct: N-terminal part of the extracellular portion;C-terminal part of the extracellular portion with the Kringle domain; also called chimeric human/mouse recombinant ROR2 extracellular construct that contains the Kringle domain of human ROR2
Source text: as §3, §4

hKringle [11] = molecular target: T9, hKringle; test: as above; remark: listed apart in the source
[12] = molecular target: T7, mouse ROR2 (recombinant extracellular …); test: as above; remark: listed apart in the source
[13] = molecular target: T10, recombinant human ROR2 with methionine 386 replaced by the valine of mouse ROR2 (human, UniProt Q01974 34-403); test: as above
T10 construct: also called human ROR2 M386V
T10 sequence (Q01974 other isoform, or with tags, fused parts or gaps limits assumed): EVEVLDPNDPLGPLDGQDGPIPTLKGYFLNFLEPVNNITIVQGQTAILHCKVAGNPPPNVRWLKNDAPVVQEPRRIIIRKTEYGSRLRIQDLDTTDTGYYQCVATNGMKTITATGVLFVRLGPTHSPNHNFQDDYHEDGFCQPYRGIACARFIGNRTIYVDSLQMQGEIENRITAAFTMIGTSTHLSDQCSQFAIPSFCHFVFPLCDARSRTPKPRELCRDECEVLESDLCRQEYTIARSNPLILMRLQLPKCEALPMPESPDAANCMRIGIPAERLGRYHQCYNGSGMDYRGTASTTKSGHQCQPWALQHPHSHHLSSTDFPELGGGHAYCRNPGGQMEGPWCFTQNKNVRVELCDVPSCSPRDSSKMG

T7 sequence (Q9Z138 other isoform, or with tags, fused parts or gaps limits assumed): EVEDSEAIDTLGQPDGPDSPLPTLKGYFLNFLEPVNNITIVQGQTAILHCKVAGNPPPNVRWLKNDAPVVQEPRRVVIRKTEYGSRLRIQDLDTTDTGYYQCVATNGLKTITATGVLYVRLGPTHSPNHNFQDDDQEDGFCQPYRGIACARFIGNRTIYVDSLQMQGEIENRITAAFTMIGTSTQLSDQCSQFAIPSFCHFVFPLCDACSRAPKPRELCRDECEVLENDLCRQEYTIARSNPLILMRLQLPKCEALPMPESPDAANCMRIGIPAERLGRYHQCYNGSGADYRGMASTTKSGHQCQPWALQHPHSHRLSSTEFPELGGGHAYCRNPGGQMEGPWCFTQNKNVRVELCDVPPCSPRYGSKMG
T1 sequence (Q01974 34-403 limits assumed): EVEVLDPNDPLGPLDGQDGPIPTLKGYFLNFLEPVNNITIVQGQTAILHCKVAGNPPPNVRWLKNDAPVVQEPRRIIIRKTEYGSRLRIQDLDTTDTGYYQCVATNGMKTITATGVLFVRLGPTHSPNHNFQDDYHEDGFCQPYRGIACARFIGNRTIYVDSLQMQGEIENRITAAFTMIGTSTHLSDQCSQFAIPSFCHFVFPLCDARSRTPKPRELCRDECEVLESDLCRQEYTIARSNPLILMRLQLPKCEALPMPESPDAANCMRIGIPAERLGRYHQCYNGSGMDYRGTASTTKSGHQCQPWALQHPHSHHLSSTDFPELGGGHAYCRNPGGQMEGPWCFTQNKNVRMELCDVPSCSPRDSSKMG
T6 sequence (Q9Z138 other isoform, or with tags, fused parts or gaps limits assumed): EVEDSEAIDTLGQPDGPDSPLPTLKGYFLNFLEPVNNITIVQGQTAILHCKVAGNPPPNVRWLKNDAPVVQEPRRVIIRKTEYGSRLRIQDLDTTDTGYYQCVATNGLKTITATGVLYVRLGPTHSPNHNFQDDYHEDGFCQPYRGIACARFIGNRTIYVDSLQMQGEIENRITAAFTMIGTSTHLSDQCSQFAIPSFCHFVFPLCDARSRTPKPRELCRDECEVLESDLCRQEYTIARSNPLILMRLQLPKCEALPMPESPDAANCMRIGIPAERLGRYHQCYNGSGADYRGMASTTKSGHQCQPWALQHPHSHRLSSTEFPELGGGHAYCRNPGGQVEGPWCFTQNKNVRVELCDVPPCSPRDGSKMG
T9 sequence (Q9Z138 other isoform, or with tags, fused parts or gaps limits assumed): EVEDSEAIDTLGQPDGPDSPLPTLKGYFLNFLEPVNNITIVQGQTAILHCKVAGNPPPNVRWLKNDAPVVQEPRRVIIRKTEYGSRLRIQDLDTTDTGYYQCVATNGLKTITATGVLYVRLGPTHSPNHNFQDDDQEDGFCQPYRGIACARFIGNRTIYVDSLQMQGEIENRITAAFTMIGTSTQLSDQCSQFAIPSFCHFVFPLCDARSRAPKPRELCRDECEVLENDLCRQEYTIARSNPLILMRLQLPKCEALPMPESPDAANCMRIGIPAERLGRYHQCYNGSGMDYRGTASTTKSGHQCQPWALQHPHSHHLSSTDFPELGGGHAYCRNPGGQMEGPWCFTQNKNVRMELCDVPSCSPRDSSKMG
T8 sequence (Q01974 other isoform, or with tags, fused parts or gaps limits assumed): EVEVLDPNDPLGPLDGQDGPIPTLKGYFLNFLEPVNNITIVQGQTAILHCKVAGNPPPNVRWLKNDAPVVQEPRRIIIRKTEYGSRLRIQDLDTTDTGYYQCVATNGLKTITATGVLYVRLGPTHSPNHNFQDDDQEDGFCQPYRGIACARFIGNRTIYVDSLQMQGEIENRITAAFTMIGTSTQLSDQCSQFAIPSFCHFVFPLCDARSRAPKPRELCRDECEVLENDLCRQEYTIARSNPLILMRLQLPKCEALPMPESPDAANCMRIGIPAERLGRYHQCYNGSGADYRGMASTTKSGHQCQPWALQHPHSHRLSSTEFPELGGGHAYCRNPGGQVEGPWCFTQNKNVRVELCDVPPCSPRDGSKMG
T4 sequence (Q01974 34-403 D354E limits assumed): as the sequence (Q01974 34-403 limits assumed) above, with D321E counted along it
T5 sequence (Q01974 other isoform, or with tags, fused parts or gaps limits assumed): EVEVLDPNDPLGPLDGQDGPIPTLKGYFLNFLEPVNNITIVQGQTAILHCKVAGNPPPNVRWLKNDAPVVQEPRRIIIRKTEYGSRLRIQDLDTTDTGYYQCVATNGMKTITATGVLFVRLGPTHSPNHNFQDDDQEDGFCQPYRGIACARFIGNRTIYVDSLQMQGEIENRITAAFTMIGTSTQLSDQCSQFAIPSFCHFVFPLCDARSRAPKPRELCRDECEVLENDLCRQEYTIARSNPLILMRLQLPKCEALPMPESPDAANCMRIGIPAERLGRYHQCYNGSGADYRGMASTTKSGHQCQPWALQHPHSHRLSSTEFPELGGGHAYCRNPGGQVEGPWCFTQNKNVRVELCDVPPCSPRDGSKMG
T3 sequence (Q01974 34-403 H349R limits assumed): as the sequence (Q01974 34-403 limits assumed) above, with H316R counted along it
T2 sequence (Q01974 34-943 limits assumed): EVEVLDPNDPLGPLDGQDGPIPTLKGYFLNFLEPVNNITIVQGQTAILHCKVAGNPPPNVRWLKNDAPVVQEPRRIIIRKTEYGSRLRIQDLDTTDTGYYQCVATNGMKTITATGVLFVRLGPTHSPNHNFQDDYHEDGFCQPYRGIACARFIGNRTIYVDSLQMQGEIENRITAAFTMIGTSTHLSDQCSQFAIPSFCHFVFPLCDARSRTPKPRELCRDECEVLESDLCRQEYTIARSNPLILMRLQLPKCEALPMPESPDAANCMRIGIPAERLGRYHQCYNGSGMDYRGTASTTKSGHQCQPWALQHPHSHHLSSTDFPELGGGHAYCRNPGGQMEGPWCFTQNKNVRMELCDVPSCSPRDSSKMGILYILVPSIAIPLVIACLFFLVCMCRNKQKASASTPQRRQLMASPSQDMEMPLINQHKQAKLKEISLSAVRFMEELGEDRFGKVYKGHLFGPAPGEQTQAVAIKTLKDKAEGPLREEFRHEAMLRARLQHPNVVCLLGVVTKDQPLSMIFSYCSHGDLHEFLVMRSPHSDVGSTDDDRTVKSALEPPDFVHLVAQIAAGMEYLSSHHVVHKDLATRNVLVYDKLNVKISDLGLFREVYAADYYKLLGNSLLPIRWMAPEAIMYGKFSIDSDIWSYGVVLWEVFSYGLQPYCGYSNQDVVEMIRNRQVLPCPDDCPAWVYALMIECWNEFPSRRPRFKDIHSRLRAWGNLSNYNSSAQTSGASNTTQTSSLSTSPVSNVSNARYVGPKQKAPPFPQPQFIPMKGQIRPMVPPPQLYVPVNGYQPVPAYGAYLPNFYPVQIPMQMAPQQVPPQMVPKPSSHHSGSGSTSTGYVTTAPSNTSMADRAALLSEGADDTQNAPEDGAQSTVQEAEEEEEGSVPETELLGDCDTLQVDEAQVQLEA

B1: 4G9 single chain variable fragment (scFv) (scFv)
scFv: DIVMTQAAPSVPVTPGESVSISCRSSKSLLHSNGNTYLYWFLQRPGQSPQLLIYRMSNLASGVPDRFSGSGSGTAFTLRISRVEAEDVGVYYCMQHLEYPLTVGAGTKLELKGSTSGSGKPGSGEGSTKGQVQLQQSGAELVRPGASVKLSCKALGYTFTDYEMHWVKQTPVHGLEWIGAIHPGSGGTAYNQKFKGKATLTADKSSSTAYMELSRLTSEDSAVYYCTRRRPRFYGMDYWGQGTSVTVSSEFLFPPKPKDTLMISRTPEVTCVVVDVSHEDPEVKFNWYVDGVEVHNAKTKPREEQYNSTYRVVSVLTVLHQDWLNGKEYKCKVSNKALPAPIEKTISKAKGQPREPQVYTLPPSREEMTKNQVSLTCLVKGFYPSDIAVEWESNGQPENNYKTTPPVLDSDGSFFLYSKLTVDESRWQQGNVFSCSVMHEALHNHYTQKSLSLSPGK
notes: scFv fused to CH2-CH3 of human IgG1; the leader is left out here; also called 4G9 scFv
B1: binds [1]; binds [2].

B2: 6E6 anti-human ROR2 monoclonal antibody (antibody, IgG1, V domains shown)
VH: EVQLVESGGDLVKPGGSLKLSCAASGFTFSNYGMSWVRQTPDKRLEWVATISSGGGYTHYVDSVKGRFTISRDNANHILYLQMSSLNSEDTAMYYCARHPRDFSYAMDYWGQGTSVTVSS
VL: DIVMTQSHKFMSTSIGDRVSITCKASQDVGHYVAWYQQKPGQSPKLLIYWASTRHTGVPDRFTGSGSGTDFTLTISNVQSEDLADYFCQQYNIYPWTFGGGSKLAIK
notes: Used conjugated with Alexa647 in flow cytometry and with pHrodo in the internalisation assay; also called 6E6 mAb
B2 was tested, and the Kd [3] was ~0.1 nM, the Kd [4] was 0.0556 nM and the binding result [5] was “no binding”. B2: no binding [6]; no binding (h1-160 aa); no binding (hCRD). The binding result [7] was “no binding”, the binding result (h1-111 aa) was “no binding” and the Kd [8] was < 0.1 nM.

B3: 6E6 single chain variable fragment (scFv) (scFv)
scFv: DIVMTQSHKFMSTSIGDRVSITCKASQDVGHYVAWYQQKPGQSPKLLIYWASTRHTGVPDRFTGSGSGTDFTLTISNVQSEDLADYFCQQYNIYPWTFGGGSKLAIKGSTSGSGKPGSGEGSTKGEVQLVESGGDLVKPGGSLKLSCAASGFTFSNYGMSWVRQTPDKRLEWVATISSGGGYTHYVDSVKGRFTISRDNANHILYLQMSSLNSEDTAMYYCARHPRDFSYAMDYWGQGTSVTVSSEFLFPPKPKDTLMISRTPEVTCVVVDVSHEDPEVKFNWYVDGVEVHNAKTKPREEQYNSTYRVVSVLTVLHQDWLNGKEYKCKVSNKALPAPIEKTISKAKGQPREPQVYTLPPSREEMTKNQVSLTCLVKGFYPSDIAVEWESNGQPENNYKTTPPVLDSDGSFFLYSKLTVDESRWQQGNVFSCSVMHEALHNHYTQKSLSLSPGK
notes: scFv fused to CH2-CH3 of human IgG1; the leader is left out here; also called 6E6 scFv; 6E6 anti-human ROR2 scFv
A Kd [9] of 0.0737 nM was found for B3 in this work.

B4: 5G3 anti-human ROR2 monoclonal antibody (antibody, IgG2a, V domains shown)
VH: EVQLVESGGGLVQPKGSLKLSCAASGFTFNTYAMNWVRQAPGKGLEWVARIRSKSNNYATYYADSVKDRFTISRDDSQSMLHLQMNNLKTEDTAMYYCVRHGSSLYYAMDYWGQGTSVTVSS
VL: DIQMTQSPSSLSASLGERVSLTCRASQEISGYLGWLQQKPDGTIKRLIYAASTLDSGVPKRFSGSRSGSAYSLTISSLESEDFADYYCLQYASYPYTFGGGTKLEIK
notes: also called 5G3 mAb
B4: no binding (hKringle [10]); no binding (hCRD); no binding [7]. For the same binder, the Kd [8] was > 40 nM.

B5: 4G9 anti-human ROR2 monoclonal antibody (antibody, IgG2a, V domains shown)
VH: QVQLQQSGAELVRPGASVKLSCKALGYTFTDYEMHWVKQTPVHGLEWIGAIHPGSGGTAYNQKFKGKATLTADKSSSTAYMELSRLTSEDSAVYYCTRRRPRFYGMDYWGQGTSVTVSS
VL: DIVMTQAAPSVPVTPGESVSISCRSSKSLLHSNGNTYLYWFLQRPGQSPQLLIYRMSNLASGVPDRFSGSGSGTAFTLRISRVEAEDVGVYYCMQHLEYPLTVGAGTKLELK
notes: Used conjugated with Alexa647 in flow cytometry and with pHrodo in the internalisation assay; also called 4G9 mAb
B5 was tested, and the Kd [3] was ~2 nM, the Kd [4] was 1.9 nM and the binding result (hKringle [11]) was “no binding”. For the same binder, the binding result [12] was “no binding”, the binding result (hCRD) was “no binding” and the Kd [8] was ~1.9 nM.

B6: 5C11 anti-human ROR2 monoclonal antibody (antibody, IgG1, V domains shown)
VH: EVQLVESGGDLVKPGGSLKLSCAASGFTFSNYGMSWVRQTPDKRLEWVATISSGGGSTYYPDSVKGRFTISRDNAKNSLYLQMSSLKSEDTAMYYCARHPYDYGYYFDYWGQGTTLTVSS
VL: DILLTQSPDILSVSPGERVSFSCRASQSIGTSIHWYQQRTNGSPRLLIKYASESISGIPSRFSGSGSGTDFTLSINSVESEDIADYYCQQSDSWPFPFGSGTKLEKK
notes: also called 5C11 mAb
B6: no binding [13]; no binding [12]; no binding [5]. B6: no binding [6]; no binding (h1-160 aa); no binding (hCRD). The binding result (h1-111 aa) was “no binding” and the Kd [8] was > 40 nM.

From patent US20230192846A1 (University of California, published 2023)
